# Earlier results, collected in PMC5512170.
# Molecular target: SNX27 PDZ (Homo sapiens) (UniProt Q96L92)
# Assay: fluorescence polarization
substance,measurement,value
ß2-AR tail C-tail (from UniProt P07550),Kd,17 µM
